Results as given in patent US20150118698A1.

Target: monoclonal antibody NB206-15B6-F8, raised against MMCN-151 antigen
Test: competitive ELISA on Biotin-… coated plate

EDIEDGTFSK [synthetic free peptide … (MMCN-151)]
OD (450-650), signal at full inhibition: 0.5 OD (450-650) | OD (450-650), signal without inhibition: 2 OD (450-650)
